Test results published in US20210346432A1.

Assays:
ET140-p25 (human) = biological target: T1, ET140-p25 (human); experiment: peptide ELISA on streptavidin plate, antibody 1 ug/mL
T1 sequence (peptide, N-terminal biotin): SGSGLRCSSNTPPLTCQRY

ET140-p26 (human) = biological target: T2, ET140-p26 (human); experiment: as above
T2 sequence (peptide, N-terminal biotin): SGSGRCSSNTPPLTCQRYC

B1: ET140-153 mIgG1 (antibody, V domains shown)
VH: QVQLVQSGAEVKKPGSSVKVSCKASGGTFSSYAISWVRQAPGQGLEWMGRIIPILGIANYAQKFQGRVTITADKSTSTAYMELSSLRSEDTAVYYCARGGYYSHDMWSEDWGQGTLVTVSS
VL: LPVLTQPPSASGTPGQRVTISCSGRSSNIGSNSVNWYRQLPGAAPKLLIYSNNQRPPGVPVRFSGSKSGTSASLAISGLQSEDEATYYCATWDDNLNVHYVFGTGTKVTVLG
**Q.** With B1 as the binder, how does the A450 (ET140-p25 (human)) read?
**A.** 0.583

**Q.** And the A450 (ET140-p26 (human))?
**A.** 0.225
